Settings in all cases: both partners purified
The target of assay [1] is T1, Bcl-2 (residues 1-207) (UniProt P10415 1-207).
T1 construct: Bcl-2, residues 1-207; Cloned in pET-28a(+) between NdeI and XhoI; buffer-exchanged to HBS-EP
The assay is described as follows: SPR; Bfk BH3 peptide amine-coupled to a CM5 chip (10 mM sodium acetate pH 5.0); Bcl-2, Bcl-XL (3.13-200 nM) and Bak (1.25-40.0 uM) injected in HBS-EP at 30 uL/min for 90 s; Biacore T200; KD by steady-state affinity analysis. A general note: SPR reads the build-up and loss of mass on a sensor chip optically.

Assay [2] has as its target T2, Bcl-XL (residues 1-209) (UniProt Q07817-1 1-209).
T2 construct: Bcl-XL, residues 1-209; Cloned in pET-28a(+) between NdeI and XhoI; buffer-exchanged to HBS-EP
The description is as above.

Assay [3] concerns the target T1, Bcl-2 (residues 1-207). Briefly: SPR; Bid BH3 peptide amine-coupled to a CM5 chip (10 mM sodium acetate pH 4.0); proteins injected in HBS-EP (10 mM HEPES pH 7.5, 150 mM NaCl, 0.05 mM EDTA, 0.005% Tween 20) at 30 uL/min for 90 s; Biacore T200; affinity experiments, responses plotted against concentration.
Assay [4] concerns the target T2, Bcl-XL (residues 1-209). Described as above.
The target in a further assay is T3, Bak (residues 23-186) (UniProt Q16611 23-186).
T3 construct: Bak, residues 23-186; Cloned in pET-28a(+) between NdeI and XhoI; buffer-exchanged to HBS-EP
T3 sequence (looked up): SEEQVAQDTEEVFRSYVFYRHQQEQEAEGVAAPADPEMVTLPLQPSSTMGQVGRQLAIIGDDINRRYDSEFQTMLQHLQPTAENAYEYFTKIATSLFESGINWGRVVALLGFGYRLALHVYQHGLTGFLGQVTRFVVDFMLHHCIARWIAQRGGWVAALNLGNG
The description is as above.

T2 sequence (Q07817 1-209): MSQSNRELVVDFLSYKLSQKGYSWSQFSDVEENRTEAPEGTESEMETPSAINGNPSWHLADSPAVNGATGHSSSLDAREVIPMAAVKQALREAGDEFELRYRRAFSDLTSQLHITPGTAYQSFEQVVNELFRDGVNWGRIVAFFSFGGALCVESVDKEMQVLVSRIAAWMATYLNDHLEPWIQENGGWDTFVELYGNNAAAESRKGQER
T1 sequence (P10415 1-207): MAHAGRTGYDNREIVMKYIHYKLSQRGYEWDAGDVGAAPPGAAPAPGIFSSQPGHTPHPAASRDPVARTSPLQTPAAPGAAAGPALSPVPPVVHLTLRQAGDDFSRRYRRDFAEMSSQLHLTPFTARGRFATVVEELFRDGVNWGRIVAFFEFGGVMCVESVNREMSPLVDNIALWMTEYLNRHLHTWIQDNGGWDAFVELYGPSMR

B1: synthetic BH3 peptide derived from Bfk (residues 47-67) (peptide)
peptide: SFDVAIIAGRLRMLGDQFNGE
notes: BH3 peptide of human Bfk (BCL2L15), residues 47-67; also called Bfk BH3 peptide; Bfk BH3; source: synthetic peptide
As usually defined, the Kd is the free concentration of one partner at which half of the binding sites on the other are occupied at equilibrium, for simple one-to-one binding. A higher Kd goes with weaker binding. As to B1, the Kd with Bcl-2 (residues 1-207) [1] came to 17.4 nM; with Bcl-XL (residues 1-209) [2] it was 36.9 nM.

B2: synthetic BH3 peptide derived from Bid (residues 79-100) (peptide)
peptide: EDIIRNIARHLAQVGDSMDRS
notes: BH3 peptide of Bid; also called Bid BH3 peptide; representative BH3 peptide; source: synthetic peptide
Take B2: the Kd in the assay with Bcl-2 (residues 1-207) [3] amounted to 44 nM; with Bcl-XL (residues 1-209) [4] it was 87 nM; in the assay with Bak (residues 23-186) it was 37000 nM.

(Values after PMC8814693 (Computational and Structural Biotechnology Journal, 2022).)
